Substrate in the data set: CC(=O)Oc1ccc2ccccc2c1
The data set can be described thus: esterase activity assay. The class given is biochemical, Geobacillus stearothermophilus. The note with it: 2-naphthyl acetate 1-20 mM in isopropanol, citrate phosphate buffer pH 7.

Positions count from the first letter of the chain named. In names and notes the source's numbering stands.

B1: Axe2 (Geobacillus stearothermophilus) (protein)
chain: MKIGSGEKLLFIGDSITDCGRARPEGEGSFGALGTGYVAYVVGLLQAVYPELGIRVVNKGISGNTVRDLKARWEEDVIAQKPDWVSIMIGINDVWRQYDLPFMKEKHVYLDEYEATLRSLVLETKPLVKGIILMTPFYIEGNEQDPMRRTMDQYGRVVKQIAEETNSLFVDTQAAFNEVLKTLYPAALAWDRVHPSVAGHMILARAFLREIGFEWVRSR
Broadly, the Km is the concentration of substrate that gives half-maximal velocity. What is called kcat is the maximal rate divided by the concentration of active sites. With B1, the Km turned out to be 300 µM and the catalytic constant (kcat) was found to be 720 s⁻¹.

B2: Axe2 (Geobacillus stearothermophilus; W190P/Y184F) (protein)
chain: B1 chain with Y184F, W190P
Take B2: the Km was determined as 3000 µM and the catalytic constant (kcat) was 44 s⁻¹.

B3: Axe2 (Geobacillus stearothermophilus; Y184N) (protein)
chain: B1 chain with Y184N
Turning to B3, the Km was 1300 µM and the kcat is given as 8.0x10^0 sec-1.

B4: Axe2 (Geobacillus stearothermophilus; R55E) (protein)
chain: B1 chain with R55E
For B4, the Km was found to be 500 µM and the turnover number (kcat) was 1000 s⁻¹.

B5: Axe2 (Geobacillus stearothermophilus; R205A/W215A/Y184F) (protein)
chain: B1 chain with Y184F, R205A, W215A
As for B5, the Michaelis constant (Km) stood at 6700 µM and the kcat was determined as 42 s⁻¹.

B6: Axe2 (Geobacillus stearothermophilus; R55A) (protein)
chain: B1 chain with R55A
B6: the Michaelis-Menten constant (Km) came to 600 µM and the turnover number (kcat) was determined as 1000 s⁻¹.

B7: Axe2 (Geobacillus stearothermophilus; Y184F) (protein)
chain: B1 chain with Y184F
Regarding B7, the Km is 4600 µM and the kcat was determined as 36 s⁻¹.

B8: Axe2 (Geobacillus stearothermophilus; W190I) (protein)
chain: B1 chain with W190I
As for B8, the Michaelis constant (Km) was 700 µM and the catalytic constant (kcat) came out at 290 s⁻¹.

(Values after doi:10.1101/466904v1.)
